Data as given in PMC9482650, “Quantitative fragmentomics allow affinity mapping of interactomes” (Nature Communications, 2022).

What was measured:
Assay in all cases: holdup assay
Parameters in all cases: key: below the threshold = too weak to quantify, mostly under pKd 3.1 to 4
MPP6, Q9NZW5 = molecular target: T1, MPP6, Q9NZW5
T1 sequence (Q9NZW5 125-219, limits assumed, looked up): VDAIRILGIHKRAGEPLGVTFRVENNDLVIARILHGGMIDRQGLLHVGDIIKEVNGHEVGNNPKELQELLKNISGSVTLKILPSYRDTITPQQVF

SNTG2, Q9NY99 = molecular target: T2, SNTG2, Q9NY99
T2 sequence (Q9NY99 68-166, limits assumed, looked up): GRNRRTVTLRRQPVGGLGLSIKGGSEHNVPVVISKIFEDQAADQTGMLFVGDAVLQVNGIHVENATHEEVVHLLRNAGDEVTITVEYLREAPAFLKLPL

DFNB31_1, Q9P202 = molecular target: T3, DFNB31_1, Q9P202
T3 sequence (Q9P202 135-233, limits assumed, looked up): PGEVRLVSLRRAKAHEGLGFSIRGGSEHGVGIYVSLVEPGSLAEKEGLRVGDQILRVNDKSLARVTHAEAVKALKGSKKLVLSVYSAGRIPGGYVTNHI

GRASP, Q7Z6J2 = molecular target: GRASP, Q7Z6J2
SNX27, Q96L92 = molecular target: SNX27, Q96L92
MAGI2_4, Q86UL8 = molecular target: MAGI2_4, Q86UL8
MAGI2_6, Q86UL8 = molecular target: MAGI2_6, Q86UL8
HTRA3, P83110 = molecular target: T4, HTRA3, P83110
T4 sequence (P83110 354-453, limits assumed, looked up): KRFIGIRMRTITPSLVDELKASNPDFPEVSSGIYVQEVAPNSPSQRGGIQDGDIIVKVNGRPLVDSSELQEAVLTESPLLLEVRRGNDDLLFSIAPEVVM

FRMPD2_2, Q68DX3 = molecular target: FRMPD2_2, Q68DX3
LRRC7, Q96NW7 = molecular target: T5, LRRC7, Q96NW7
T5 sequence (Q96NW7 1440-1537, limits assumed, looked up): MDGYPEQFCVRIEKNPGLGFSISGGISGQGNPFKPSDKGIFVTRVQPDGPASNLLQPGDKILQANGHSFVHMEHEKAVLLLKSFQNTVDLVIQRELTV

SIPA1L2, Q9P2F8 = molecular target: T6, SIPA1L2, Q9P2F8
T6 sequence (Q9P2F8 945-1036, limits assumed, looked up): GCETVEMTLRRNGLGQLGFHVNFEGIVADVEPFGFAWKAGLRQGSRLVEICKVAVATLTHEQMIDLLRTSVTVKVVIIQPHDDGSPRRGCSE

PTPN13_1, Q12923 = molecular target: T7, PTPN13_1, Q12923
T7 sequence (Q12923 1088-1188, limits assumed, looked up): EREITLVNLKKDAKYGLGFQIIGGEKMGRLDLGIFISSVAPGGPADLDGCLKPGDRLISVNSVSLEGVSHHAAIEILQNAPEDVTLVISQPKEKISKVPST

FRMPD2_3, Q68DX3 = molecular target: FRMPD2_3, Q68DX3
DLG1_2, Q12959 = molecular target: DLG1_2, Q12959
PDZD2_2, O15018 = molecular target: T8, PDZD2_2, O15018
T8 sequence (O15018 329-429, limits assumed, looked up): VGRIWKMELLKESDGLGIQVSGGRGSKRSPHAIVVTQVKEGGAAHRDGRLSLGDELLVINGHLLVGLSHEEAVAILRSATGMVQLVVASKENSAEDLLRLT

Inadl_5, Q8NI35 = molecular target: Inadl_5, Q8NI35
SNTA1, Q13424 = molecular target: T9, SNTA1, Q13424
T9 sequence (Q13424 82-180, limits assumed, looked up): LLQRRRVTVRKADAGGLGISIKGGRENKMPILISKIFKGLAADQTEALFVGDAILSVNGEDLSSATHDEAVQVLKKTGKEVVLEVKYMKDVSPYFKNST

Inadl_8, Q8NI35 = molecular target: Inadl_8, Q8NI35
NHERF3_1, Q5T2W1 = molecular target: T10, NHERF3_1, Q5T2W1
T10 sequence (Q5T2W1 4-100, limits assumed, looked up): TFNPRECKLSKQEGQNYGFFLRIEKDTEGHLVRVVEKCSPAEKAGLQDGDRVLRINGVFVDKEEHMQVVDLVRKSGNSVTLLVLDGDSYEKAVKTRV

APBA3_1, O96018 = molecular target: T11, APBA3_1, O96018
T11 sequence (O96018 389-490, limits assumed, looked up): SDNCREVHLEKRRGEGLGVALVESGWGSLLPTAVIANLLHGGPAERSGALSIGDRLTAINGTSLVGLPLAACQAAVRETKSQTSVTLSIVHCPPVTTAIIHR

NHERF4_2, Q86UT5 = molecular target: NHERF4_2, Q86UT5
DLG4_3, P78352 = molecular target: DLG4_3, P78352
LNX1_3, Q8TBB1 = molecular target: LNX1_3, Q8TBB1
APBA2_2, Q99767 = molecular target: T12, APBA2_2, Q99767
T12 sequence (Q99767 654-744, limits assumed, looked up): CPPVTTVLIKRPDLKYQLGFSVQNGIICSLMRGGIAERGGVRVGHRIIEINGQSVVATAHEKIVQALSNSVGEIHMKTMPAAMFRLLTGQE

GRIP1_2, Q9Y3R0 = molecular target: T13, GRIP1_2, Q9Y3R0
T13 sequence (Q9Y3R0 145-248, limits assumed, looked up): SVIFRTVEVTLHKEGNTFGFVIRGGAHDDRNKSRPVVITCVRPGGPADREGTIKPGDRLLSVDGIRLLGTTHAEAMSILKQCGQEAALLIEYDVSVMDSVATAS

[1] = plain residues with an end cap or a label only (N-terminal biotin on a linker: ado-ado)
[2] = plain residues with an end cap or a label only (N-terminal biotin on a linker: ado-ado, ttds)
[3] = plain residues with an end cap or a label only (N-terminal biotin on a linker: ttds)
[4] = plain residues with an end cap or a label only (N-terminal biotin on a linker: ahx)

Chain of MAGI2_6, Q86UL8 (Q86UL8 1141-1229): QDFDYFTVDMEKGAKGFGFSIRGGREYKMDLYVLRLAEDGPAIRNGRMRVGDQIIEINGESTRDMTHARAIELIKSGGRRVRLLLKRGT
Chain of Inadl_5, Q8NI35 (Q8NI35 673-780): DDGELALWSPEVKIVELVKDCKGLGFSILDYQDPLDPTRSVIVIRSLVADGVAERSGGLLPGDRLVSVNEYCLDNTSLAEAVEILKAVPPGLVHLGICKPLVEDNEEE
Chain of LNX1_3, Q8TBB1 (Q8TBB1 500-596): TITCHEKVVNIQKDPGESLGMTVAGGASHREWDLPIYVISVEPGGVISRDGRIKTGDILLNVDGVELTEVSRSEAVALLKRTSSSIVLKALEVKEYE
Chain of DLG4_3, P78352 (P78352 306-403): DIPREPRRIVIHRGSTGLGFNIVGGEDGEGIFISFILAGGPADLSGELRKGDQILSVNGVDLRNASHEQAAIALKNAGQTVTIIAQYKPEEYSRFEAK
Chain of DLG1_2, Q12959 (Q12959 314-412): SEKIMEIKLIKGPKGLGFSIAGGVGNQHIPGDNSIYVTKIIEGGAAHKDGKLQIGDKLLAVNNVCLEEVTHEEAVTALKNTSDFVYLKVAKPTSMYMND
Chain of FRMPD2_3, Q68DX3 (Q68DX3 1073-1166): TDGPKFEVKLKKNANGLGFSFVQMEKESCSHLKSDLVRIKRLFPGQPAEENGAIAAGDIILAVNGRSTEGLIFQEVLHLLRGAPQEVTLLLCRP
Chain of NHERF4_2, Q86UT5 (Q86UT5 220-308): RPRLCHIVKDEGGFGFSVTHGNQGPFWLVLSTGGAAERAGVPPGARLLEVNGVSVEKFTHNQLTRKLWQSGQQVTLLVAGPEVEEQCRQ
Chain of FRMPD2_2, Q68DX3 (Q68DX3 944-1038): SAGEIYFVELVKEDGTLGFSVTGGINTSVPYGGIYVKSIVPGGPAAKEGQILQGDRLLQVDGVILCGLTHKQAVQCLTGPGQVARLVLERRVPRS
Chain of MAGI2_4, Q86UL8 (Q86UL8 772-865): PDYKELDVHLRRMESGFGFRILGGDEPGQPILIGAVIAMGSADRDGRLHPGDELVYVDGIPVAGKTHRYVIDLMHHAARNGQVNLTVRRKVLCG
Chain of Inadl_8, Q8NI35 (Q8NI35 1425-1530): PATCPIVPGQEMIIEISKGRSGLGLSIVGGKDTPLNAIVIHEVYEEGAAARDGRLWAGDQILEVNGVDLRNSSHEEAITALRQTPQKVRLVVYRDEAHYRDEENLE
Chain of GRASP, Q7Z6J2 (Q7Z6J2 96-193): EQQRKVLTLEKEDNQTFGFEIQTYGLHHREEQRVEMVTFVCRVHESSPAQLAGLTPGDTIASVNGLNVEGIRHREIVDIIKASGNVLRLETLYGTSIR

## ELKAEDEVQI [DCHS2, Q6V1P9]
MPP6, Q9NZW5; [1]
  pKd: below the threshold
SNTG2, Q9NY99; [1]
  pKd: below the threshold
DFNB31_1, Q9P202; [1]
  pKd: below the threshold
GRASP, Q7Z6J2; [1]
  pKd: below the threshold
SNX27, Q96L92; [1]
  pKd: below the threshold
MAGI2_4, Q86UL8; [1]
  pKd: below the threshold
MAGI2_6, Q86UL8; [1]
  pKd: below the threshold
HTRA3, P83110; [1]
  pKd: below the threshold
FRMPD2_2, Q68DX3; [1]
  pKd: below the threshold
LRRC7, Q96NW7; [1]
  pKd: below the threshold
SIPA1L2, Q9P2F8; [1]
  pKd: below the threshold
PTPN13_1, Q12923; [1]
  pKd: below the threshold
FRMPD2_3, Q68DX3; [1]
  pKd: below the threshold
DLG1_2, Q12959; [1]
  pKd: below the threshold
PDZD2_2, O15018; [1]
  pKd: below the threshold
Inadl_5, Q8NI35; [1]
  pKd: below the threshold
SNTA1, Q13424; [1]
  pKd: below the threshold
Inadl_8, Q8NI35; [1]
  pKd: below the threshold
NHERF3_1, Q5T2W1; [1]
  pKd: below the threshold
APBA3_1, O96018; [1]
  pKd: below the threshold
NHERF4_2, Q86UT5; [1]
  pKd: below the threshold
DLG4_3, P78352; [1]
  pKd: below the threshold
LNX1_3, Q8TBB1; [1]
  pKd: below the threshold
APBA2_2, Q99767; [1]
  pKd: below the threshold
GRIP1_2, Q9Y3R0; [1]
  pKd: below the threshold

## SNAKAVETDV [KCNA4, P22459]
MPP6, Q9NZW5; [2]
  pKd: below the threshold
SNTG2, Q9NY99; [2]
  pKd: 4.28
DFNB31_1, Q9P202; [2]
  pKd: below the threshold
GRASP, Q7Z6J2; [2]
  pKd: below the threshold
SNX27, Q96L92; [2]
  pKd: below the threshold
MAGI2_4, Q86UL8; [2]
  pKd: 3.79
MAGI2_6, Q86UL8; [2]
  pKd: 4.35
HTRA3, P83110; [2]
  pKd: below the threshold
FRMPD2_2, Q68DX3; [2]
  pKd: 3.52
LRRC7, Q96NW7; [2]
  pKd: 3.64
SIPA1L2, Q9P2F8; [2]
  pKd: below the threshold
PTPN13_1, Q12923; [2]
  pKd: below the threshold
FRMPD2_3, Q68DX3; [2]
  pKd: below the threshold
DLG1_2, Q12959; [2]
  pKd: 5.42
PDZD2_2, O15018; [2]
  pKd: 4.32
Inadl_5, Q8NI35; [2]
  pKd: below the threshold
SNTA1, Q13424; [2]
  pKd: 4.7
Inadl_8, Q8NI35; [2]
  pKd: below the threshold
NHERF3_1, Q5T2W1; [2]
  pKd: below the threshold
APBA3_1, O96018; [2]
  pKd: below the threshold
NHERF4_2, Q86UT5; [2]
  pKd: below the threshold
DLG4_3, P78352; [2]
  pKd: below the threshold
LNX1_3, Q8TBB1; [2]
  pKd: below the threshold
APBA2_2, Q99767; [2]
  pKd: below the threshold
GRIP1_2, Q9Y3R0; [2]
  pKd: below the threshold

## SSIDLWETAL [SLC15A5, A6NIM6]
MPP6, Q9NZW5; [3]
  pKd: below the threshold
SNTG2, Q9NY99; [3]
  pKd: 5.2
DFNB31_1, Q9P202; [3]
  pKd: 4.97
GRASP, Q7Z6J2; [3]
  pKd: 5.28
SNX27, Q96L92; [3]
  pKd: 5.92
MAGI2_4, Q86UL8; [3]
  pKd: below the threshold
MAGI2_6, Q86UL8; [3]
  pKd: 5.08
HTRA3, P83110; [3]
  pKd: below the threshold
FRMPD2_2, Q68DX3; [3]
  pKd: 4.3
LRRC7, Q96NW7; [3]
  pKd: 4.47
SIPA1L2, Q9P2F8; [3]
  pKd: below the threshold
PTPN13_1, Q12923; [3]
  pKd: below the threshold
FRMPD2_3, Q68DX3; [3]
  pKd: below the threshold
DLG1_2, Q12959; [3]
  pKd: 4.4
PDZD2_2, O15018; [3]
  pKd: 4.11
Inadl_5, Q8NI35; [3]
  pKd: below the threshold
SNTA1, Q13424; [3]
  pKd: 5.19
Inadl_8, Q8NI35; [3]
  pKd: below the threshold
NHERF3_1, Q5T2W1; [3]
  pKd: 6.25
APBA3_1, O96018; [3]
  pKd: below the threshold
NHERF4_2, Q86UT5; [3]
  pKd: below the threshold
DLG4_3, P78352; [3]
  pKd: below the threshold
LNX1_3, Q8TBB1; [3]
  pKd: below the threshold
APBA2_2, Q99767; [3]
  pKd: below the threshold
GRIP1_2, Q9Y3R0; [3]
  pKd: below the threshold

## PPRQRSETQV [HPV82-E6, Q9IR59]
MPP6, Q9NZW5; [3]
  pKd: below the threshold
SNTG2, Q9NY99; [3]
  pKd: 4
DFNB31_1, Q9P202; [3]
  pKd: below the threshold
GRASP, Q7Z6J2; [3]
  pKd: below the threshold
SNX27, Q96L92; [3]
  pKd: 4.67
MAGI2_4, Q86UL8; [3]
  pKd: 4.72
MAGI2_6, Q86UL8; [3]
  pKd: 3.46
HTRA3, P83110; [3]
  pKd: below the threshold
FRMPD2_2, Q68DX3; [3]
  pKd: below the threshold
LRRC7, Q96NW7; [3]
  pKd: below the threshold
SIPA1L2, Q9P2F8; [3]
  pKd: below the threshold
PTPN13_1, Q12923; [3]
  pKd: below the threshold
FRMPD2_3, Q68DX3; [3]
  pKd: below the threshold
DLG1_2, Q12959; [3]
  pKd: 5.02
PDZD2_2, O15018; [3]
  pKd: below the threshold
Inadl_5, Q8NI35; [3]
  pKd: 3.31
SNTA1, Q13424; [3]
  pKd: 4.15
Inadl_8, Q8NI35; [3]
  pKd: below the threshold
NHERF3_1, Q5T2W1; [3]
  pKd: 4.03
APBA3_1, O96018; [3]
  pKd: below the threshold
NHERF4_2, Q86UT5; [3]
  pKd: below the threshold
DLG4_3, P78352; [3]
  pKd: 4.43
LNX1_3, Q8TBB1; [3]
  pKd: below the threshold
APBA2_2, Q99767; [3]
  pKd: below the threshold
GRIP1_2, Q9Y3R0; [3]
  pKd: below the threshold

## SKKNELFSNL [NHERF1, O14745]
MPP6, Q9NZW5; [4]
  pKd: below the threshold
SNTG2, Q9NY99; [4]
  pKd: below the threshold
DFNB31_1, Q9P202; [4]
  pKd: below the threshold
GRASP, Q7Z6J2; [4]
  pKd: below the threshold
SNX27, Q96L92; [4]
  pKd: below the threshold
MAGI2_4, Q86UL8; [4]
  pKd: below the threshold
MAGI2_6, Q86UL8; [4]
  pKd: below the threshold
HTRA3, P83110; [4]
  pKd: below the threshold
FRMPD2_2, Q68DX3; [4]
  pKd: below the threshold
LRRC7, Q96NW7; [4]
  pKd: below the threshold
SIPA1L2, Q9P2F8; [4]
  pKd: below the threshold
PTPN13_1, Q12923; [4]
  pKd: below the threshold
FRMPD2_3, Q68DX3; [4]
  pKd: below the threshold
DLG1_2, Q12959; [4]
  pKd: below the threshold
PDZD2_2, O15018; [4]
  pKd: 4.38
Inadl_5, Q8NI35; [4]
  pKd: below the threshold
SNTA1, Q13424; [4]
  pKd: below the threshold
Inadl_8, Q8NI35; [4]
  pKd: below the threshold
NHERF3_1, Q5T2W1; [4]
  pKd: below the threshold
APBA3_1, O96018; [4]
  pKd: below the threshold
NHERF4_2, Q86UT5; [4]
  pKd: below the threshold
DLG4_3, P78352; [4]
  pKd: below the threshold
LNX1_3, Q8TBB1; [4]
  pKd: below the threshold
APBA2_2, Q99767; [4]
  pKd: below the threshold
GRIP1_2, Q9Y3R0; [4]
  pKd: below the threshold
